Experiments:
[1] = biological target: AMS0229 E1E2 glycoprotein on HCV pseudoparticles (HCVpp) (Hepatitis C virus (genotype 1a))
[2] = biological target: UKNP2.4.1 E1E2 glycoprotein on HCV pseudoparticles (HCVpp) (Hepatitis C virus (genotype 2))
[3] = biological target: UKNP1.2.3 E1E2 glycoprotein on HCV pseudoparticles (HCVpp) (Hepatitis C virus)

Soluble CD81 LEL with Strep-tag (soluble version of the long external loop of the CD81 receptor) (domain or fragment)
IC50 of neutralisation of HCVpp infection of Huh-7 cells (luciferase) [1]: 92 µg/mL
IC50 of neutralisation of HCVpp infection of Huh-7 cells (luciferase) [2]: 82 µg/mL
IC50 of neutralisation of HCVpp infection of Huh-7 cells (luciferase) [3]: 85 µg/mL

— PMC10821612
